Patent US11230581B2, “Peptides and combination of peptides for use in immunotherapy against ovarian cancer and other cancers” (Immatics Biotechnologies GmbH, priority 2015, dated 2022)

biological target: HLA-A*02:01 (Homo sapiens, UniProt P04439, D140Y/D185E/D98H/E176V/E277Q/G131W/G231S/I119V/I121R/I166T/I218V/L300P/L318F/N151K/N90K/P208A/P217A/Q86G/Q94H/R138H/R169H/T345S); assay: MHC binding assay (UV-ligand exchange, β2m ELISA, peptide exchange yield); conditions: binding of HLA-class I restricted peptides to HLA-A*02:01, UV-ligand exchange
Summary of the method: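 Peptide-MHC complexes formed by UV-ligand exchange, cleaving a UV-sensitive placeholder peptide in favour of the test peptide. Exchange yield measured by ELISA: monomers diluted 100-fold onto streptavidin-coated plates, 1 h 37 °C, detected with 2 ug/ml HRP anti-β2m and TMB, absorbance at 450 nm.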

Row | Substance | Peptide exchange (MHC class I binding score, peptide exchange yield)
1 | 488 (FLAEDPKVTL; listed as Homo sapiens) [compound 488] | “+++” (≥50 = +++)
2 | 489 (KMWEELPEVV; listed as Homo sapiens) [compound 489] | “+++” (≥50 = +++)
3 | 490 (FLLQHVQEL; listed as Homo sapiens) [compound 490] | “+++” (≥50 = +++)
4 | 491 (GLNDRSDAV; listed as Homo sapiens) [compound 491] | “++” (≥20% = ++)
5 | 492 (SLFDGFADGLGV; listed as Homo sapiens) [compound 492] | “+++” (≥50 = +++)
6 | 493 (GLLGEKTQDLIGV; listed as Homo sapiens) [compound 493] | “+++” (≥50 = +++)
7 | 494 (ALQPEPIKV; listed as Homo sapiens) [compound 494] | “++” (≥20% = ++)
8 | 495 (FIFSEKPVFV; listed as Homo sapiens) [compound 495] | “+++” (≥50 = +++)
9 | 496 (FLVEKQPPQV; listed as Homo sapiens) [compound 496] | “+++” (≥50 = +++)
10 | 497 (GLLEKLTAI; listed as Homo sapiens) [compound 497] | “+++” (≥50 = +++)
11 | 498 (KLWTGGLDNTV; listed as Homo sapiens) [compound 498] | “+++” (≥50 = +++)
12 | 499 (KIFDIDEAEEGV; listed as Homo sapiens) [compound 499] | “++” (≥20% = ++)
13 | 500 (SLMEDQVLQL; listed as Homo sapiens) [compound 500] | “+++” (≥50 = +++)
14 | 501 (LLDPNVKSIFV; listed as Homo sapiens) [compound 501] | “+++” (≥50 = +++)
15 | 502 (RLLAQVPGL; listed as Homo sapiens) [compound 502] | “+++” (≥50 = +++)
16 | 503 (SLNHFTHSV; listed as Homo sapiens) [compound 503] | “+++” (≥50 = +++)
17 | 504 (GLSDGNPSL; listed as Homo sapiens) [compound 504] | “++” (≥20% = ++)
18 | 505 (SLAPGDVVRQV; listed as Homo sapiens) [compound 505] | “++” (≥20% = ++)
19 | 506 (KLLGKVETA; listed as Homo sapiens) [compound 506] | “+++” (≥50 = +++)
20 | 507 (KLIDDQDISISL; listed as Homo sapiens) [compound 507] | “+++” (≥50 = +++)
21 | 508 (ILAQEQLVVGV; listed as Homo sapiens) [compound 508] | “+++” (≥50 = +++)
22 | 509 (FLFDTKPLIV; listed as Homo sapiens) [compound 509] | “+++” (≥50 = +++)
23 | 510 (KLYSVVSQL; listed as Homo sapiens) [compound 510] | “++” (≥20% = ++)
24 | 511 (FLDPYCSASV; listed as Homo sapiens) [compound 511] | “++” (≥20% = ++)
25 | 512 (SLSEIVPCL; listed as Homo sapiens) [compound 512] | “+++” (≥50 = +++)
26 | 513 (SLWPSPEQL; listed as Homo sapiens) [compound 513] | “++” (≥20% = ++)
27 | 514 (ILVDWLVQV; listed as Homo sapiens) [compound 514] | “+++” (≥50 = +++)
